According to patent publication US20240261403A1 (published 2024):

Target: T1, EGFR L858R peptide on HLA-A*33:03 (human)
T1 peptide: HVKITDFGR
Assay: multimer staining

B1: TCR (i) with CDR3 alpha SEQ ID NO: 1 and CDR3 beta SEQ ID NO: 13 (Table 2, rank 1) (TCR, V domains shown)
Valpha: KQEVTQIPAALSVPEGENLVLNCSFTDSAIYNLQWFRQDPGKGLTSLLLIQSSQREQTSGRLNASLDKSSGRSTLYIAASQPGDSATYLCAFIGHGGSQGNLIFGRGTSLIVHP
Vbeta: NAGVTQTPKFQVLKTGQSMTLQCAQDMNHEYMSWYRQDPGMGLRLIHYSVGAGITDQGEVPNGYNVSRSTTEDFPLRLLSAAPSQTSVYFCASSMQGAMSEQFFGPGTRLTVL
binding result: recognises

B2: TCR (ii) with CDR3 alpha SEQ ID NO: 2 and CDR3 beta SEQ ID NO: 14 (Table 2, rank 2) (TCR, V domains shown)
Valpha: KQEVTQIPAALSVPEGENLVLNCSFTDSAIYNLQWFRQDPGKGLTSLLLIQSSQREQTSGRLNASLDKSSGRSTLYIAASQPGDSATYLCAATGTYKYIFGRGTSLIVHP
Vbeta: NAGVTQTPKFQVLKTGQSMTLQCAQDMNHEYMSWYRQDPGMGLRLIHYSVGAGITDQGEVPNGYNVSRSTTEDFPLRLLSAAPSQTSVYFCASSPEFARALDNQPQHFGPGTRLTVL
binding result: recognises
